Experimental data: patent US20240101668A1 (WUGEN, published 2024)
Positions count from the first letter of the chain named.

B1: Polypeptide No. 285 (scFv, V domains shown)
VH: QVQLVQSGAEVKKPGSSVKVSCKASGYSFTNYYMHWVRQAPGQGLEWMGGIIPVFGTTTYSQTFQGRVTITADESTSTAYMELSSLRSEDTAVYYCARESQDGDFDYWGQGTLVTVSS
VL: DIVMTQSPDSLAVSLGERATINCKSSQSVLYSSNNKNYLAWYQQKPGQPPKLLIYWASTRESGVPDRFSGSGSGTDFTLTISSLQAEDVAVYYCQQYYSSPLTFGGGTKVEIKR
notes: scFv
B2: Polypeptide No. 227 (scFv, V domains shown)
VH: QVQLVQSGAEVKKPGSSVKVSCKASGYTLNELFMHWVRQAPGQGLEWVGGIIPMSGTTFYAQTFQGRVTITADESTSTAYMELSSLRSEDTAVYYCAKGVRQYSYGRYYYGMDVWGQGTLVTVSS
VL: DIQMTQSPSSLSASVGDRVTITCRASQSVSSYLNWYQQKPGKAPKLLIYGASNLQSGVPSRFSGSGSGTDFTLTISSLQPEDFATYYCQQSYTTPWTFGQGTRLEIKR
notes: scFv
B3: Polypeptide No. 274 (scFv, V domains shown)
VH: QVQLVQSGAEVKKPGSSVKVSCKASGYTFTYRYLHWVRQAPGQGLEWMGRITPISGTTNYAQKFQGRVTITADESTSTAYMELSSLRSEDTAVYYCAKDSGQLAHYGMDVWGQGTTVTVSS
VL: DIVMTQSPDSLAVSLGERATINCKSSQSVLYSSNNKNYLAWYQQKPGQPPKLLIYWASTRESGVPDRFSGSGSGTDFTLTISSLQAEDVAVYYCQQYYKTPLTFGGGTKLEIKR
notes: scFv
B4: Polypeptide No. 255 (scFv, V domains shown)
VH: QVQLVQSGAEVKKPGSSVKVSCKASGYTLTELSMHWVRQAPGQGLEWMGGIIPISGTVTYAQKFQGRVTITADESTSTAYMELSSLRSEDTAVYYCANKGQQLVRGYFQHWGQGTLVTVSS
VL: DIQMTQSPSSLSASVGDRVTITCQASHDIRNSVNWYQQKPGKAPKLLIYATSSLQSGVPSRFSGSGSGTDFTLTISSLQPEDFATYYCQQSYNTPFTFGQGTKLEIKR
notes: scFv
B5: Polypeptide No. 267 (scFv, V domains shown)
VH: QVQLVQSGAEVKKPGSSVKVSCKASGYTLTSFGISWVRQAPGQGLEWVGMIIPLSGTTHYAQKFQGRVTITADESTSTAYMELSSLRSEDTAVYYCANLYGGNAYYYYGMDVWGQGTTVTVSS
VL: B4 VL with Q24R, H27Q, R30S, S32F, N34A, T51A, Y92F, N93D, F96Y
notes: scFv
B6: Polypeptide No. 252 (scFv, V domains shown)
VH: QVQLVQSGAEVKKPGSSVKVSCKASGYTLTDLSIHWVRQAPGQGLEWVGGIIPMSGTANYAQKFQGRVTITADESTSTAYMELSSLRSEDTAVYYCARSSSSWPKYFQHWGQGTLVTVSS
VL: not shown
notes: scFv
B7: Polypeptide No. 230 (scFv, V domains shown)
VH: QVQLVQSGAEVKKPGSSVKVSCKASGGTFSSNAINWVRQAPGQGLEWMGGIIPLFGTTNYAQKFQGRVTITADESTSTAYMELSSLRSEDTAVYYCARVLSGWYGTYYFDYWGQGTLVTVSS
VL: EIVMTQSPATLSVSPGERATLSCRASQSVSADYIAWYQQKPGQAPRLLIYDVSTRASGIPARFSGSGSGTEFTLTISSLQSEDFAVYYCQHYGSSQVTFGQGTKVEIKR
notes: scFv
B8: Polypeptide No. 251 (scFv, V domains shown)
VH: QVQLVQSGAEVKKPGSSVKVSCKASGGTFSSDAINWVRQAPGQGLEWMGGIIPIVGTPTYAQKFQGRVTITADESTSTAYMELSSLRSEDTAVYYCAKGLAFGVFDGLDVWGQGTTVTVSS
VL: B7 VL with A31S, D32N, I34L, S57T, H91Q, Q96T, V97L, Q101G
notes: scFv
B9: Polypeptide No. 271 (scFv, V domains shown)
VH: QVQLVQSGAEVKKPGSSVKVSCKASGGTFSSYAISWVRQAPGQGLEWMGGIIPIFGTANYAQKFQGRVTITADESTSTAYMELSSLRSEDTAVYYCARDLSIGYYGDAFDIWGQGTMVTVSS
VL: EIVMTQSPATLSVSPGERATLSCRASQSVSYNQLAWYQQKPGQAPRLLIYDISSRAAGIPARFSGSGSGTEFTLTISSLQSEDFAVYYCQQYGGLPATFGQGTRLEIKR
notes: scFv
B10: Polypeptide No. 275 (scFv, V domains shown)
VH: QVQLVQSGAEVKKPGSSVKVSCKASGYTFTSYYMHWVRQAPGQGLEWMGWMNPYSGNTGYAQKFQGRVTITADESTSTAYMELSSLRSEDTAVYYCARVGSGWYSDYWGQGTLVTVSS
VL: not shown
notes: scFv
B11: Polypeptide No. 234 (scFv, V domains shown)
VH: QVQLVQSGAEVKKPGSSVKVSCKASGHTFTAYYMHWVRQAPGQGLEWMGWMSPYSGNTGYAQNFQGRVTITADESTSTAYMELSSLRSEDTAVYYCARATRGTIQHWGQGTLVTVSS
VL: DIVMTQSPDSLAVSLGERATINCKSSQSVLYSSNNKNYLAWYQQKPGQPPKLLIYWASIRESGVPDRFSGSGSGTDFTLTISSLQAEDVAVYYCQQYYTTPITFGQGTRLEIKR
notes: scFv
B12: Polypeptide No. 277 (scFv, V domains shown)
VH: QVQLVQSGAEVKKPGSSVKVSCKASGYTFTGYYMHWVRQAPGQGLEWMGWIDPNSGGTNYAQKFQGRVTITADESTSTAYMELSSLRSEDTAVYYCARDVDTAMVTDYWGRGTLVTVSS
VL: EIVMTQSPATLSVSPGERATLSCRASQSVDNLVGWYQQKPGQAPRLLIYDISSRATGIPARFSGSGSGTEFTLTISSLQSEDFAVYYCQQYGRSPITFGQGTRLEIKR
notes: scFv
B13: Polypeptide No. 236 (scFv, V domains shown)
VH: QVQLVQSGAEVKKPGSSVKVSCKASGGTFSSYAISWVRQAPGQGLEWMGGIIPILGIANYAQKFQGRVTITADESTSTAYMELSSLRSEDTAVYYCAHVDGYGMDVWGQGTTVTVSS
VL: EIVMTQSPATLSVSPGERATLSCRASQSVSSNLAWYQQKPGQAPRLLIYDVSSRATGIPARFSGSGSGTEFTLTISSLQSEDFAVYYCQQLDAYPLTFGGGTKVEIKR
notes: scFv
B14: Polypeptide No. 266 (scFv, V domains shown)
VH: QVQLVQSGAEVKKPGSSVKVSCKASGYSLTELSIHWVRQAPGQGLEWMGGINPISGTANYAQKFQGRVTITADESTSTAYMELSSLRSEDTAVYYCARGTVRLNWFDPWGQGTLVTVSS
VL: B13 VL with S30G, N32Q, A34G, D50G, V51A, S53T, L91S, D92F, A93S, Y94T
notes: scFv
B15: Polypeptide No. 232 (scFv, V domains shown)
VH: QVQLVQSGAEVKKPGASVKVSCKASGYTFTSYGIHWVRQAPGQGLEWMGGIIPIFGTASYAQKFQGRVTMTRDTSTSTVYMELSSLRSEDTAVYYCTRSNGIAAAGTHWYFDLWGRGTLVTVSS
VL: DIQMTQSPSSLSASVGDRVTITCRASQNIANSLNWYQQKPGKAPKLLIYAASSLQSGVPSRFSGSGSGTDFTLTISSLQPEDFATYYCQQYSSYPPTFGPGTKVDIKR
notes: scFv
B16: Polypeptide No. 272 (scFv, V domains shown)
VH: QVQLVQSGAEVKKPGSSVKVSCKASGYIFTNYYIQWVRQAPGQGLEWMGGIIPIFGTVGYAQKFQGRVTITADESTSTAYMELSSLRSEDTAVYYCARGRIGGGNDYWGQGTLVTVSS
VL: B4 VL with H27Q, D28Y, R30S, S32Y, V33L, A50D, T51A, Q55E, N93S, F96Y
notes: scFv
B17: Polypeptide No. 264 (scFv, V domains shown)
VH: QVQLVQSGAEVKKPGSSVKVSCKASGYTLTELSMHWVRQAPGQGLEWMGGIIPISSATSIPQKFQGRVTITADESTSTAYMELSSLRSEDTAVYYCARGALYSSSPVRVVAGTKGWFDPWGQGTLVTVSS
VL: B15 VL with N28D, A30S, S32Y, N34A, S92Y, P96L, P100G, D105E
notes: scFv
B18: Polypeptide No. 29 (scFv, V domains shown)
VH: QVQLVQSGAEVKKPGASVKVSCKASGYTFTGYYLHWVRQAPGQGLEWMGVINVRRGSTRYAQNFQGRVTMTRDTSTSTVYMELSSLRSEDTAVYYCARVSGSYYQPWGQGTLVTVSS
VL: DIQMTQSPSSLSASVGDRVTITCRASQSISRWLAWYQQKPGKAPKLLIYDASNLETGVPSRFSGSGSGTDFTLTISSLQPEDFATYYCQQGNSFPPIFGGGTKVEIKR
notes: scFv
B19: Polypeptide No. 26 (scFv, V domains shown)
VH: QVQLVQSGAEVKKPGASVKVSCKASGYTFTENEMHWVRQAPGQGLEWMGWMNPNSGNTGYAQKFQGRVTMTRDTSTSTVYMELSSLRSEDTAVYYCAREGGDWPYYYMDVWGKGTTVTVSS
VL: B15 VL with R24Q, N28D, A30R, S32Y, Y91T, Y94T, P96L
notes: scFv
B20: Polypeptide No. 27 (scFv, V domains shown)
VH: QVQLVQSGAEVKKPGASVKVSCKASGYTLTGYYMHWVRQAPGQGLEWMGWMNPSSGNTGYAQQFQGRVTMTRDTSTSTVYMELSSLRSEDTAVYYCARASSDRYYYDGVWYFDLWGRGTLVTVSS
VL: DIQMTQSPSSLSASVGDRVTITCRASQDIRNNLGWYQQKPGKAPKLLIYGASSLQSGVPSRFSGSGSGTDFTLTISSLQPEDFATYYCQQTYSSPPTFGQGTKLEIKR
notes: scFv

Target: T1, huFLT3-T227-His (human, UniProt P36888 27-543)
T1 construct: extracellular domain; also called FLT3 WT
Assay: BLI
Procedure: (§1) Discovered scFvs were analyzed for binding to huCD33-R69-His or huCD33-G69-Fc recombinant proteins (for anti-CD33 scFvs; for CLL-1 scFvs, huCLL1-K244-Avi-Tev-His or huCLL1-Q244-Avi-Tev-His were used; for FLT3, huFLT3-T227-His or huFLT3-M227-Fc were used) using BLI on a ForteBio Octet HTX instrument. Streptavidin-coated biosensors were loaded with biotinylated anti-V5 tag monoclonal antibody for 5 min and were then quenched and blocked with 20 μM amine-PEG2-Biotin for 5 min. scFvs were captured on biosensors from scFv clone periplasmic extracts. huCD33 (or huCLL-1, or huFLT3) proteins were then associated with the captured scFvs for 2 minutes, followed by dissociation with buffer (1×HBST [10 mM HEPES pH 7.4, 150 mM NaCl, 0.05% Tween-20], 1 g/L BSA) for 5 minutes. […] Data was fitted with 1:1 Langmuir equation and off-rate values were reported.

binding result	Binder
binds	B1
binds	B2
binds	B3
binds	B4
binds	B5
binds	B6
binds	B7
binds	B8
binds	B9
binds	B10
binds	B11
binds	B12
binds	B13
binds	B14
binds	B15
binds	B16
binds	B17

Target: T2, huFLT3-M227-Fc (human, UniProt P36888 27-543)
T2 construct: extracellular domain; also called FLT3 Mutant
Assay: BLI
Procedure: as §1

binding result	Binder
binds	B1
binds	B2
binds	B3
binds	B4
binds	B5
binds	B6
binds	B7
binds	B8
binds	B9
binds	B10
binds	B11
binds	B12
binds	B13
binds	B14
binds	B15
binds	B16
binds	B17

Target: T3, huCD33-R69 stably expressed on Jurkat cells (human, UniProt P20138 18-364)
T3 construct: whole, on cells; >200,000 receptors per cell; also called CD33 WT; CD33^ARG69
Assay: FACS on cells;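 also: fixed Jurkat cells bearing either CD33 variant, barcoded by dye, exposed to myc-tagged scFv periplasmic extracts, detected with anti-myc PE antibody and read by flow cytometry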

T3 sequence (P20138 18-364): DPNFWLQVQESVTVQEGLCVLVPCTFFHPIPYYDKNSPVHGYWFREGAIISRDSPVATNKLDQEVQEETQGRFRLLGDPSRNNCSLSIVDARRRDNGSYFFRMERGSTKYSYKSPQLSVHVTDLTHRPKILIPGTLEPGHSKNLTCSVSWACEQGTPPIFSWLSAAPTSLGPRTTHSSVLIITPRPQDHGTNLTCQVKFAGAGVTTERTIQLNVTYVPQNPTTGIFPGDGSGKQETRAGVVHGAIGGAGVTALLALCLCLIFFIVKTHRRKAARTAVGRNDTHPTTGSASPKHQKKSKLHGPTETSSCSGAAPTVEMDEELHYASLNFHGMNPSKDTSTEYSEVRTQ

geometric mean MFI fold change over Jurkat parental [fold]	Binder
< 2	B18
< 2	B19
< 2	B20

Target: T4, huCD33-G69 stably expressed on Jurkat cells (human, UniProt P20138 18-364)
T4 construct: whole, on cells; >200,000 receptors per cell; also called CD33 Mutant; CD33 R69G
Assay: FACS on cells;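 also: fixed Jurkat cells bearing either CD33 variant, barcoded by dye, exposed to myc-tagged scFv periplasmic extracts, detected with anti-myc PE antibody and read by flow cytometry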

T4 sequence (P20138 18-364 R69G): as the sequence (P20138 18-364) above, with R52G counted along it

geometric mean MFI fold change over Jurkat parental [fold]	Binder
2 to 10	B18
2 to 10	B19
2 to 10	B20

Target: T5, huCD33-R69-His recombinant protein (human, UniProt P20138 18-259)
T5 construct: extracellular domain
Assay: BLI
Procedure: as §1

T5 sequence (P20138 18-259): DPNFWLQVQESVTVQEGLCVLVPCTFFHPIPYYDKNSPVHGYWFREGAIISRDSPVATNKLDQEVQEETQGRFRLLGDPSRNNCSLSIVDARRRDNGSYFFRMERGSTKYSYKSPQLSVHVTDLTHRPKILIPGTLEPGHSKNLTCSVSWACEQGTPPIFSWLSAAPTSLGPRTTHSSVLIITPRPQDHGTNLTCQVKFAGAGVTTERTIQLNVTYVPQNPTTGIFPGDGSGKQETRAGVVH

binding result	Binder
no binding	B18
no binding	B19
no binding	B20

Target: T6, huCD33-G69-Fc recombinant protein (human, UniProt P20138 18-259)
T6 construct: extracellular domain; also called CD33 R69G
Assay: BLI
Procedure: as §1

T6 sequence (P20138 18-259 R69G): as the sequence (P20138 18-259) above, with R52G counted along it

binding result	Binder
binds	B18
binds	B19
binds	B20
